Results reported in patent US20210054071A1 (NANJING LEGEND BIOTECH, published 2021).
Like-named read-outs stand apart in the source and are kept apart here. Values belong to the binder of their own block, whether it stands above or below them.

Key:
murine TIGIT-Fc = target: T1, murine TIGIT-Fc (murine, UniProt P86176 29-148, limits assumed); assay: FACS competition, murine TIGIT-Fc binding to CT26 cells (murine CD155)
T1 construct: not shown: Fc part, detected with a secondary antibody against human Fc
T1 sequence (looked up): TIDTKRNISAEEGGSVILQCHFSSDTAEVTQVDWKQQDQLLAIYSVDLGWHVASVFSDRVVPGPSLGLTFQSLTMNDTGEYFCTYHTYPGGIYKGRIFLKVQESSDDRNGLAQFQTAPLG

[1] = target: T2, human TIGIT expressed on CHO-K1 cells (human, UniProt Q495A1 22-244); assay: FACS, CHO-K1 cells expressing human TIGIT
T2 construct: also called CHO/human TIGIT cells; CHO-TIGIT cells
T2 sequence: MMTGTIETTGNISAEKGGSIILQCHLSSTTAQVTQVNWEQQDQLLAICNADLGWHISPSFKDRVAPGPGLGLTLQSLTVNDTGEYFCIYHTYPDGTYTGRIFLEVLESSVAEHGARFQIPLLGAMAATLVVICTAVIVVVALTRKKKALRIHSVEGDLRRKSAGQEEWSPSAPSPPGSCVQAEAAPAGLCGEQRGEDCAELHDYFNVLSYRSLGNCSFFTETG

[2] = target: T3, murine TIGIT expressed on CHO-K1 cells (murine, UniProt P86176 29-249); assay: FACS, CHO-K1 cells expressing murine TIGIT
T3 construct: whole, on cells; also called CHO/mouse TIGIT; mouse TIGIT expressed on CHO cells
T3 sequence (looked up): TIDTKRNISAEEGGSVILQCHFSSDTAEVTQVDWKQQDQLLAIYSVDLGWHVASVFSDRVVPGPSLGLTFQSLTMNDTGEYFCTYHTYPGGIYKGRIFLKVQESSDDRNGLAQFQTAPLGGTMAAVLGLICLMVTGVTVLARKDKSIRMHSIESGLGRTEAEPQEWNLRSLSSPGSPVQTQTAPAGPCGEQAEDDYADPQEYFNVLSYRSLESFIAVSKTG

[3] = target: T2, human TIGIT expressed on CHO-K1 cells; assay: FACS competition, biotinylated CD155-Fc on CHO/human TIGIT cells
[4] = target: T4, human TIGIT-His protein (Acrobiosystems) (human, UniProt Q495A1 22-141); assay: SPR (BIAcore T200), target amine-coupled to CM5 chip
T4 construct: Bought; Genbank NP_776160
T4 sequence: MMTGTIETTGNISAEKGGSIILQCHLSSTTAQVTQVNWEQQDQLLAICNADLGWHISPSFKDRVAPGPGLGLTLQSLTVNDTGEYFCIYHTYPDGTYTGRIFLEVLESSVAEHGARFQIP

[5] = target: T5, cynomolgus TIGIT-His protein (Acrobiosystems) (cynomolgus, UniProt A0A7N9I9V4 89-209); assay: as above
T5 construct: bought
T5 sequence (A0A7N9I9V4 entry or part of it): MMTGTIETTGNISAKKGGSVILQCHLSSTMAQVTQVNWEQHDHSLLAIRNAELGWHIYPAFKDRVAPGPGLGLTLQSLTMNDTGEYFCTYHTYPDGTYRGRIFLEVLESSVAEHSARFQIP

[6] = target: T6, cynomolgus TIGIT expressed on CHO-K1 cells (cynomolgus, UniProt A0A7N9I9V4 89-312); assay: FACS, CHO-K1 cells expressing cynomolgus TIGIT
T6 construct: whole, on cells
T6 sequence (A0A7N9I9V4 entry or part of it): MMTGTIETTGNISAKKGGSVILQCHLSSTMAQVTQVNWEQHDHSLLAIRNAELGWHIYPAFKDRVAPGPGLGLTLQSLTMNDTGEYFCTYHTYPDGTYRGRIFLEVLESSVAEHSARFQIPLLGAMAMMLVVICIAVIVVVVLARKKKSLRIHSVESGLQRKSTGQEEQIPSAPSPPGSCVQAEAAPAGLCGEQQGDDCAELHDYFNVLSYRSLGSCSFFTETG

[7] = target: T7, TIGIT on TIGIT effector cells (UniProt Q495A1 22-244, limits assumed); assay: cell-based or functional assay
T7 sequence (looked up): T2 sequence

[8] = target: T7, TIGIT on TIGIT effector cells; assay: cell-based or functional assay; remark: listed apart in the source
[9] = target: T2, human TIGIT expressed on CHO-K1 cells; assay: FACS competition, CD155 binding to CHO-TIGIT cells
[10] = target: T2, human TIGIT expressed on CHO-K1 cells; assay: FACS competition, biotinylated CD155-Fc on CHO/human TIGIT cells; remark: listed apart in the source
[11] = target: T2, human TIGIT expressed on CHO-K1 cells; assay: FACS competition, CD155 binding to CHO-TIGIT cells; remark: listed apart in the source
[12] = target: T7, TIGIT on TIGIT effector cells; assay: cell-based or functional assay; remark: listed apart in the source
[13] = target: T2, human TIGIT expressed on CHO-K1 cells; assay: FACS, CHO-TIGIT cells
[14] = target: T2, human TIGIT expressed on CHO-K1 cells; assay: FACS, CHO-TIGIT cells; remark: listed apart in the source
[15] = target: T4, human TIGIT-His protein (Acrobiosystems); assay: SPR (BIAcore T200), target amine-coupled to CM5 chip; remark: listed apart in the source
[16] = target: T5, cynomolgus TIGIT-His protein …; assay: as above; remark: listed apart in the source
[17] = target: T7, TIGIT on TIGIT effector cells; assay: cell-based or functional assay; remark: listed apart in the source
[18] = target: T2, human TIGIT expressed on CHO-K1 cells; assay: FACS, CHO-K1 cells expressing human TIGIT; remark: listed apart in the source
[19] = target: T6, cynomolgus TIGIT expressed on CHO-K1 …; assay: FACS, CHO-K1 cells expressing cynomolgus TIGIT; remark: listed apart in the source
PD-1 expressed on cells [20] = target: T8, PD-1 expressed on cells (UniProt Q15116 25-288, limits assumed); assay: FACS, CHO-PD-1 cells
T8 construct: whole, on cells; also called CHO-PD-1 cells; PD-1 effector cells
T8 sequence (Q15116 25-288 limits assumed): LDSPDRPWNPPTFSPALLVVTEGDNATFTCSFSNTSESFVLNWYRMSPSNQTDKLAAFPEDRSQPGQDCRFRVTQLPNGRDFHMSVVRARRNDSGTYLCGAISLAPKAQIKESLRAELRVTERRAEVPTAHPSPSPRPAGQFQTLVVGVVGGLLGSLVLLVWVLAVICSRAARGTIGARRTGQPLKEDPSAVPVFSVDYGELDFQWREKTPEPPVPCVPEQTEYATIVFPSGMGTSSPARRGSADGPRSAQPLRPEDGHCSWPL

PD-1 expressed on cells [21] = target: T8, PD-1 expressed on cells; assay: FACS competition, PD-L1 binding to CHO-PD-1 cells
PD-1 expressed on cells [22] = target: T8, PD-1 expressed on cells; assay: cell-based or functional assay
[23] = target: T9, human PD-1 (Acrobiosystems) (human, UniProt Q15116 25-167); assay: SPR as in Example 2
T9 construct: bought
T9 sequence (Q15116 25-167 limits assumed): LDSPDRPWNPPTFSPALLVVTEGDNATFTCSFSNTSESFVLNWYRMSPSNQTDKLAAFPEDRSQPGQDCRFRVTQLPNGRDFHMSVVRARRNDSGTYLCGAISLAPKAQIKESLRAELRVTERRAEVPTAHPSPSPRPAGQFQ

[24] = target: T7, TIGIT on TIGIT effector cells; assay: cell-based or functional assay; remark: listed apart in the source
[25] = target: T10, TIGIT on activated primary human T cells (human, UniProt Q495A1); assay: FACS binding to activated, expanded primary human CD4+ T cells isolated from PBMCs; the sheet names only the cells, target by the binder's specificity as named in the filing (anti-TIGIT)
T10 sequence (receptor, looked up): T2 sequence

[26] = target: T10, TIGIT on activated primary human T cells; assay: FACS binding to activated, expanded primary human CD8+ T cells isolated from PBMCs; the sheet names only the cells, target by the binder's specificity as named in the filing (anti-TIGIT)

B1: 10A7 mAb (antibody, human IgG1, kappa, V domains shown)
VH: EVQLVESGGGLTQPGKSLKLSCEASGFTFSSFTMHWVRQSPGKGLEWVAFIRSGSGIVFYADAVRGRFTISRDNAKNLLFLQMNDLKSEDTAMYYCARRPLGHNTFDSWGQGTLVTVSS
VL: DIVMTQSPSSLAVSPGEKVTMTCKSSQSLYYSGVKENLLAWYQQKPGQSPKLLIYYASIRFTGVPDRFTGSGSGTDYTLTITSVQAEDMGQYFCQQGINNPLTFGDGTKLEIKR
EC50 (murine TIGIT-Fc): 71.3 nM | EC50 [1]: 4.06 nM | EC50 [2]: 0.709 nM | EC50 [3]: 5.27 nM

B2: 22G2 (IgG1) mAb (antibody, V domains shown)
VH: QVQLQESGPGLVKPSETLSLTCTVSGGSVSSGIYYWSWIRQPPGKGLEWIGYIYYSGSTNYNPSLKSRVTISVDTSKNQFSLKLSSVTAADTAVYYCARDYYVSGNYYNVDYYFFGVDVWGQGTTVTVSS
VL: EIVLTQSPATLSLSPGERATLSCRASQSVSSYLAWYQQKPGQAPRLLIYDASNRATGIPARFSGSGSGTDFTLTISSLEPEDFAVYYCQQRSNWPPLFTFGPGTKVDIKR
notes: also called 22G2 (IgG1) (anti-TIGIT)
Kd [4]: 0.12 nM | koff [4]: 0.00016 s⁻¹ | kon [4]: 1.4e+06 M⁻¹ s⁻¹ | Kd [5]: 4.1 nM | koff [5]: 0.0056 s⁻¹ | kon [5]: 1.3e+06 M⁻¹ s⁻¹ | EC50 [6]: 1.12 nM | TIGIT IL-2 release EC50 [7]: 2.26 nM | TIGIT Reporter assay EC50 [7]: 6.01 nM | IL-2 release assay EC50 [8]: 3.07 nM | Reporter assay EC50 [8]: 3.04 nM | EC50 [9]: 1.11 nM | EC50 [1]: 1.14 nM | EC50 [10]: 1.94 nM | EC50 [11]: 2.31 nM | TIGIT Reporter assay EC50 [12]: 4.65 nM | EC50 [13]: 2.46 nM | EC50 [14]: 1.6 nM | Kd [15]: 0.19 nM | koff [15]: 0.00027 s⁻¹ | kon [15]: 1.4e+06 M⁻¹ s⁻¹ | Kd [16]: 3.4 nM | koff [16]: 0.0068 s⁻¹ | kon [16]: 2e+06 M⁻¹ s⁻¹ | TIGIT/CD155 blockade reporter assay, EC50 [17]: 7.92 nM | TIGIT/CD155 blockade reporter assay, Signal span [17]: 108 | EC50 [18]: 0.494 nM | EC50 [3]: 2.7 nM | EC50 [19]: 0.604 nM

Next, values leading:

EC50 (PD-1 expressed on cells [20]): 1.72 nM | EC50 (PD-1 expressed on cells [21]): 1.51 nM | PD-1 cell based assay EC50 (PD-1 expressed on cells [22]): 1.21 nM | Kd [23]: 1.2 nM
B3: PD1-BM-min (IgG4) (antibody, V domains shown)
VH: EVQLVESGGGLVQPGGSLRLSCAASGFVFSRYDMAWVRQAPGKGLEWVSFISGGGSNTYYPDTVKGRFTISRDNSKNTLYLQMNSLRAEDTAVYYCISPYYYAMEYWGQGTTVTVSS
VL: DIQMTQSPSSVSASVGDRVTITCKASQDVDTAVAWYQQKPGKAPKLLIYWASTRHTGVPSRFSGSGSGTDFTLTISSLQPEDFATYYCQQYSTFPWTFGGGTKVEIKR
notes: anti-PD-1 monoclonal antibody, human IgG4 Fc

PD-L1/TIGIT bifunctional reporter assay: EC50 [24]: 3.61 nM | PD-L1/TIGIT bifunctional reporter assay: Upper plateau of signal [24]: 983 | EC50 [11]: 2.42 nM | TIGIT Reporter assay EC50 [12]: 11.4 nM | EC50 [25]: 0.403 nM | EC50 [14]: 2.24 nM | EC50 [26]: 1.41 nM
B4: Tiragolumab (antibody, human IgG1, kappa, V domains shown)
VH: EVQLQQSGPGLVKPSQTLSLTCAISGDSVSSNSAAWNWIRQSPSRGLEWLGKTYYRFKWYSDYAVSVKGRITINPDTSKNQFSLQLNSVTPEDTAVFYCTRESTTYDLLAGPFDYWGQGTLVTVSS
VL: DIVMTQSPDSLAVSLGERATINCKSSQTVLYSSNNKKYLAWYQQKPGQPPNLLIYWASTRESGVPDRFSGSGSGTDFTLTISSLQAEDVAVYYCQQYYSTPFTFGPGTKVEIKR
notes: also called Tiragolumab (anti-TIGIT)
